The target of assay [1] is His-Dwg wild type. The experiment in a line: GST pull-down. Conditions: parent: est. 41; read off a plot.
In assay [2] the target is GST-Atg8a wild type (UniProt Q9W2S2). The experiment in a line: GST pull-down. Conditions: parent: est. 27; read off a plot.
UniProt Q9W2S2, sequence (Q9W2S2 entry or part of it): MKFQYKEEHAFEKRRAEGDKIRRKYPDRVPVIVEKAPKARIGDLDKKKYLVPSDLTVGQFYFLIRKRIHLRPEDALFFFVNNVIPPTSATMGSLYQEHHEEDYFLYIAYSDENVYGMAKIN

In the case of “GST-Atg8a wild type (from UniProt Q9W2S2) Y49A”, the other: Fold Change in assay [1] worked out at 4.4. In the case of His-Dwg wild type Y129A; I132A, the other: Fold Change in assay [2] was 9.5.

These data come from PMC11592666.
